We go through nine sequences from the DeepSol protein solubility set.

A short description of the series: soluble on expression in E. coli; label from the status in PepcDB or PDB records.
For “MSLNEAGIVLLPKSRQLPALSMIDQNGAAVALDGLKDQWTLMFFGYTFCPDICPTTLAQIKQIRSELPTAAVERMRVVLVSVDPNRDTPQQLKEYLSYFDPQYIGLTAPVADIQKLANSVSIPFIPADTSKPNYFVDHSGNLALIGPDGTQRGFIRAPLNNQKLVKQLPRLLERDEGHHHHHH”, the “soluble on expression in E. coli” value is “soluble”.

“MRILEEDLKNSTYRIRIESLDDLWYLRNILSEGDEVSAITFRRVEESADVQRSRERERIPITIRLKVEKIEFQDFDNRLRILGTVIEGPEDTKGKHQSITVTVDSEISITKEWDDQHIDLLKEATDEKYVTVYTAVAMDEDEAQIFLIHPYGIQQVGTVYSGRSGKYAEGNYSEASYFDQIVNALKNYSNSIIILGPGFARDRFARYCAQRGVNVIGSFPANRTDSGAVYEFITSADGAKLLSNERIARDKEIVDEFLVAVKKDMGVYGRDQTESALQMGALSDLIITDEMFRTEDGRRSLSIAQTVGTRIHIVSVSNDPGQIVKKFGGFAGILRYRVQLEHHHHHH”: the “soluble on expression in E. coli” value is listed as “soluble”. The entry for “MDPSSENNSPMVSPNDDKIVKITVSSVMQGVKQIVVEMKDKETVSILKNRIEQETEVLTNRQVLLFKGMELKDNNKTMTDCGINSDAKITMNVKMSTGIVTNPTTTDILLMMPPIFPTNQDQLRKEIKGMHTVHRKPKKMSGIDANASLWTPEKQMENEFTRNRMKTLLRRKKHAPILSGTPVDSEIGSAQTFSPVATPPGELSSPSTVSSHVSSGSEPESDAEVVTEKELKLFFDPPETIEEHKQCRRSMVLAPSSEEELLENLKKFEAERKTKCNTCFKKLSAAQQTMHCKCLRIFCDRHRHPKNHTCVIDYKQDGRNKLKKNNSKVGDGGWRKAKFES” is “not soluble”; for “MSLPNCLQCQSEYVYEDGLLLICPMCAFEWTPGEEATEEEGLVVLDSNGVRLSDGDTITVVKDLKVKGAPKDLKQGTRVKNIRLVEGDHNIDCKIDGFGAMKLKSEFVKKI” it is “not soluble”.

As for “MGSDKIHHHHHHMSDLITLAQLSQGYRYNSDSLILADFILKQGIKGAVFDVGAGCGIIGILLKKNIANLSLSLIDIQKENIELIEKNLKSNKIQGDIFHDDFNQFQIIKKFDFIVCNPPFYRQGAYKSEDQHKAISKFQEFLPLHSFLAKTNSMLKPNGTLYFCYEALALDEICFILKDMKMKITKLCFVHTHQSKKARLVLIQVKKGSKSPCEILPPFFVYENEILSKQMQEIHLRFRLKSYDI”, the “soluble on expression in E. coli” value is on record as “not soluble”.

For “MQELKDKIKKLGYEEIKDIDDATFIASHKNVYVYVKKVDEEQLKPELVTAITYEAMATDPISTYAWITNGTSNAYVLVEEEKAVSEIPSVFEDENKLYSGKRQLTDRDKWSIRKYQELQEKFDGLHEMIYGMKDHVNNSNDVIDEFSKLIFLETFRLYHPEYRLTKGNVTGKLFNEIYRYEYVEKHKDKAVQEIREAFKEIKDHADYVAILDNGEKANIFSADEYIKLENPNIYIAVLKALQDLGTIIIDGVERPATLRDLTGDVLGRVFDVLLRGKFENKGGMGIYLTPRQVTEAAAEMVLHDLTKDGAAKLIAKDPKTGIPTLRIGDLCCGSGGFLIKMLQKIEHYLLNKLTGDKKQYEELFEQMKEHCFIGADNAPGMVLKARINMALHGAPKCPIFQTRNSLMNTRLKPGTFDAILTNPPFSKTGISKTIKKGKTTVENPEGAEIIKYYSSDIDEDGQNRMSPYGLSLGSKPDSRGKWKEVNSVDPAVLFIDRNLQLLKPGGLLMIVVPDGILSNSGDKYVREYIMGKKNPVTGEFEGGKAILKAVISLPQVTFALSGAGAKTSLLYLKKKEHPGEKQGPVFMAVADEVGFTVKQNVEVQLGDDHNDLLKIVEAYKKGMPEDVE”, the “soluble on expression in E. coli” value is recorded as “not soluble”. For “MTADIRFDEKGLVPAIVQDAQSKEVLTLAYMNKESLEKTLETGETWFYSRSRQELWHKGATSGNVQRVVDIRYDCDADALLVLVEPAGPACHTGSYSCFSRSLDGAARTPAADRFAILNELEQIIAKRDAERPEGSYTTYLFEKGVDKILKKVGEEAAEVIIAAKNQNHEELKWEAADLLYHLLVLLREQKLPLDAVLATLAERHAQKVGAGDKKE”, the “soluble on expression in E. coli” value is “not soluble”. In the case of “MKKLIVASLSLTFMLGGCASMNKEGVGTITGGVVGGLLGSQFGGGSGKVAAAGAGALLGAYLGGQIGKTMDKVDRLEMQRALETAPTGKAVAWSNPDTGYRYTVQPTRTYYNAQQPCREYITKAMIGGKTQQIYGKACRQADGSWRVVNLEHHHHHH”, the “soluble on expression in E. coli” value is “not soluble”. Turning to “MLDKIIEIIMTILPFLGNRKKRKAMAQDVKEFSELVKDQYTFLMEQLEKVLKDYFDLSARVKEMHTEIFSLREQLAQAATLQCVNKECLQRTQSEASISEA”, the “soluble on expression in E. coli” value was “not soluble”.
